Measurements reported in a protein production outcome set (Wang et al. 2014).

assay: label from the status in PepcDB records

| Sequence | protein production |
| --- | --- |
| METLLHAKLLLSAEVESLKSGSFDQTYVKKAEHIISGESYQLVQQFVDKFKGKISISGEISTSSVIAALNDFLNVEVFKMGQENEMLFLAIALLQTFIQNNYTGPAARLKAISGLFGKTGIEIGAVNTALSRSLAIMGQPAYEFMDDPLYLVLSLLLLERITGQKSLFDVTPDQEIPLPIISAESTPGLLAVAYWWWARALLTQLSLIPEPSGFQASVASAIYQSADLAYAITKELPESIHEDFKRELCAMYYLENVKCSLAINTEHLCLPSLTRAKKITNFEFVMTGARATRTKYQQKAHAGLIILAKSFTFQNFALRTTSATPETFALESDLLLEKPHFESIADEPLDEQIYSKRQKVDLNEGYEEDKLLPLALRQENIPKLLLDLNPNDQPTLSDYDNIQLLLRLYTIKNTTPAKDPLVEEELTALLSRILYQNGDKNWSIFARSLWERSIIETTKAKTIERGLLQMQSLVEELDLKIKSKLVPSSSEINVASRLSYIHQLPFIPRWQLDATLAEKYMSLGILKSAVEIYERLGMACETALCYAAVGDEKKAEEILLQRINENDSDARAYSILGDIKQDPSLWEKSWEIGKYVNAKNSLAKYYFNPPPKSGAQPNYSATLKHLNDSLRQYPLSFETWYFYGCVGLQCGKMQIAAEAFTRCVSLDPYHALSWSNLSAAYTKMDKLKEAYSCLKRAISCDAQKNWKIWENYMLVAVKLNEWEDVLTACKQLVSIRRDKSGEGSIDLPIIEKLVELLVTSEYPEEPQQLSYFQKSCTEFICNTLPQVITTSARCWRLVARVELWRKRPWAALECHEKAYRAISHNPDLEVEEKVWNDTVDACEDLVAAYESLGEMEGKYGPGSLVCKDWKYKCRSTIKALMSKGKGRWDDSPGWDRLVEARSQI | failed |
| METLSDVFATFSQRGDTTAFVHRTGVRRYVFTYLDLHALSLRMNRWLADQGVGEGDRVVLWGPNSPWWAVAFWGIVTRGAVAVPVDFMSGAERAEIIAGLTDAKLVIQSRDKLEHHHHHH | not failed |
| METNRPSPDALLVNLQEEADSSVGKLKIYFGFAAGVGKTYAMLSDAKDQLAAGVDVVAGYIEPHAREETLRMLEGIPIIPPKAINHKNIALKEFDLDEALKRKPELILVDELAHTNASGVRNKKRFQDVEELLQAGIDVYTTVNVQHIESLNDIVEGITKVAVRETIPDYVFDEADRVKLIDIEPDELLKRLEQGKIYQPARAKTAMQNFFTRENLKLLREIAMRKAADRI | not failed |
| METPNSTGGTPPTMRVSVVLCTHTMERYDDCRAAAESVLAQTYDDVELVLVSDGNRDVYKQYQSDFGNRDDVLTHCNDANVGLLESRNNGAEVATGDVVAFIDDDAIADEEWVAALVDAYEQQDALAVGGRMTPAWVAGKPSFLPAEFYWLIGVTHRGFGPNGDPDEPGVVRNTFGSNISFDRDVFLELGGFDDDIGGRQGEKNLQGGETELCARLRTEYDEGVYYTPEALVAHKIFDYRTDPGWLLDRAFWQGYSKRGMEVFVPESTGEESDFLSDLLFRFAPERIWGLVRAPSVAGVLQFVFLFALTAFVGFGYLYGMTVWG | failed |
| METRAPFVIVGAFVLAAIFAVFGFVFWLHNTSGVGARTSYHVQFRDPVPGLLVGAAVLFNGIRVGEVTALALAPDDPRRVDATIAVAPSTPVRPDTKVGLDFQGLTGVPVVALEGGKQLSGSAIATTLVAEPGAGMSMTQAAREALRKVDSVLGENSGPLKDTIANFKTFSEWLAGKTEKLDGILGGVERMTGANEPVVKKVVYDLSAATGFPPPSPPLKGQLTIPESNTVVLFDSQKMLLAPGLEVPAFAGAQWSDSLPKMLQEKLIQSFENYDIAHAPMRPNDAVQPDYQLLTDIRSFQVIGEGDALRAEIAFSAKIIDKDGKLVAARLFQQASPLDKPEPAAAVSAFDKSFDTIAKELVPWAAQALASGRAEVEPAATTSRPITAPRSSGTTKGR | failed |
| METSRVEEWFERGVEALGHDQVYLARSCFEHVARVNQHPAASSYLALCQAKTRGKFSDAIALARESIAREPHNPLLYQNLGRIYQLAGMRMDAVEVLREGVRRGAGEEAVAELNRIGTRKQPPFRRLHRNHPLNKYVGKLLARLRLR | failed |
| METTHYSIAQHFSSGDFPAVYACFNDIIEWNIIGNQVVKGKADVIDFCNKMLPEMKGAVLTNDNVIQNENQIVIEGKCRYFDAEGKEAFVSYCDIYRFENDTIKTITSYCI | not failed |
| MEVHAADQYLVAPGEADLLEVHARLAGTGLFPPFPPVELPGGVGGLVARGGFAQTFFFPAEVLGLTFRTPKGRRVRAGGVVVKNVQGYDLVRLFVGSFGLLGRAEEVVLRLRPGRAQAFLRRPFSGSFPRLVPTPRFLFALEDEEGPWLYAYHFGHPKEVERFREAFGGEEARPLDLRPRFPRGLGLGEGPLWDLRFRYQDGGASPPPPPAFLRLARVL | not failed |
